# Results from patent publication US10704056B2, “Constitutively active ABA receptor mutants” (The Regents of the University of California, priority 2011, dated 2020).
# T1: ABI2 (Arabidopsis thaliana, UniProt O04719)
# T1 construct: Full length ABI1 and ABI2 were cloned into a modified pSUMO vector; made in house; host or cells: E. coli BL21 (DE3) pLysS
# T1 sequence (O04719 1-423): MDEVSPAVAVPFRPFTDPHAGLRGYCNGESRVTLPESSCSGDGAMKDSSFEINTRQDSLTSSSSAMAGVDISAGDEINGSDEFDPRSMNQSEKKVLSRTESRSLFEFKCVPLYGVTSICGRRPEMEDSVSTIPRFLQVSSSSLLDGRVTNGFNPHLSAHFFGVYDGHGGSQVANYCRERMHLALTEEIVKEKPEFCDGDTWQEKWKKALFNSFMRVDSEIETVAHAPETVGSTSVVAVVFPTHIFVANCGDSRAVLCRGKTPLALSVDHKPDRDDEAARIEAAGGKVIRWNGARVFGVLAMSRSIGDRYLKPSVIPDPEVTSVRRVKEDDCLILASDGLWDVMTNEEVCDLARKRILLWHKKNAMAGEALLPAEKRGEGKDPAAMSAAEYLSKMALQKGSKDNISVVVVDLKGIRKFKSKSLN
# T2: ABI1 (Arabidopsis thaliana, UniProt P49597)
# T2 construct: Full length ABI1 and ABI2 were cloned into a modified pSUMO vector; made in house; host or cells: E. coli BL21 (DE3) pLysS
# T2 sequence (P49597 1-434): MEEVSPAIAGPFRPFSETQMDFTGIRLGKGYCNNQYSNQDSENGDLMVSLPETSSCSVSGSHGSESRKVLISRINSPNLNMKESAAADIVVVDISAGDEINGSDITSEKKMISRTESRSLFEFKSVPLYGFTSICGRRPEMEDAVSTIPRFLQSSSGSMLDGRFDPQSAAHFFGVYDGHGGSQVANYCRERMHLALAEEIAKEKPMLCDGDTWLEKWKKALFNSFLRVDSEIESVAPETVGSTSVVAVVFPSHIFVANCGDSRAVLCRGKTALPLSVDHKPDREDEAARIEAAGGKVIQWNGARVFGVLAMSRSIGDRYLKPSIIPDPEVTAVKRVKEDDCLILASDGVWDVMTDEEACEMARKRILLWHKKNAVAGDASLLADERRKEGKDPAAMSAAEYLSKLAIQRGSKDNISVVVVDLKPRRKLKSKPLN
# B1: PYL2^CA3: PYL2 mutant (H65P, V87F, F165V); expressed in plants as 35S-driven GFP fusion (protein)
# chain: HHHHHHMSSSPAVKGLTDEEQKTLEPVIKTYHQFEPDPTTCTSLITQRIHAPASVVWPLIRRFDNPERYKPFVKRCRLISGDGDVGSVREVTFISGLPASTSTERLEFVDDDHRVLSFRVVGGEHRLKNYKSVTSVNEFLNQDSGKVYTVVLESYTVDIPEGNTEEDTKMVVDTVVKLNLQKLGVAATSAPMHDDE
# Experiments:
# [1] = system: Columbia seeds; assay: Seed dormancy / germination assay of 35S-driven transgenic lines, stratified vs unstratified; type: in vivo, Arabidopsis; conditions: 35S-driven overexpression in wild-type Columbia background
# Description: To investigate the effects of the PYL2^CA3 allele, we performed a number of physiological assays on wild-type and aba2-1 genotypes. Columbia (Col), 35S::PYL2, and 35S::PYL2^CA3 seed samples were divided into two portions; one portion was stratified on ⅓ MS plates for 6 days at 4° C. and the second portion was plated six days later ⅓ MS plates. Both samples were the transferred to room temperature (23° C.) and incubated in darkness. […] Each experiment was performed in triplicate and each point plotted represents the average of tests conducted using 40 to 70 seeds. […] Thus, overexpression of PYL2^CA3 activates the ABA-regulated seed dormancy pathway.
# In order to assay dormancy of seeds for Columbia, 35S::GFP-PYL2, and 35S::GFP-PYL2^CA3 were divided into two portions and surface sterilized using chlorine gas (prepared in situ using bleach and HCl). One portion was stratified on ⅓ MS agar plates for 6 days at 4° C. in darkness and the second portion, which was maintained at room temperature, was seeded six days later on the ⅓ MS agar plates; both samples were transferred to a 23° C. light-tight growth chamber and germination scored at 24 hour periods. The homozygous 35S::GFP-PYL2 and 35S::GFP-[…] seeds used in these experiments were ˜5- and ˜6-months post-harvest respectively at the time of the experiment shown in FIG. 12.
# [2] = biological target: T1, ABI2; assay: In vitro PP2C phosphatase (pNPP) receptor activation assay with ABI2; type: biochemical; conditions: 600 nM PP2C, 0-4800 nM receptor, no ABA
# Description: (§1) Full length ABI1 and ABI2 were cloned into a modified pSUMO vector (LifeSensors Inc, USA) vector yielding 6×His-SUMO fusion proteins; GST-HAB1 was expressed and purified as previously described (Park et al., 2009). Mutant receptors were cloned into pET28 yielding 6×His-fusion proteins. […]. The cultures were pre-incubated 2 hours at 30° C. and, for PP2C expression, media was supplemented with 4 mM MnCl2 one hour after inoculation. After pre-incubation, IPTG was added (1 mM) and cells were induced at 15° C. for 16 hours, after which they were collected by centrifugation, resuspended in 5 ml Buffer A (50 mM NaH2PO4, 300 mM NaCl) +10 mM imidazole, pH 8.0 and stored at −80° C. For purification, cells were thawed, sonicated on ice (60 seconds) and a cleared lysate was then applied a 1 ml-bed volume column of Ni-NTA (Qiagen, USA), washed with 20 column volumes of Buffer A+30 mM imidazole and bound protein eluted with 1 ml of Buffer A+250 mM imidazole. For receptors, the elutate was dialyzed against TBS and for PP2Cs, fusion proteins were desalted by passage over a Sephadex G50 column.
# (§2) The purified receptors and phosphatases were then used in receptor assays where receptor activation is indicated by inhibition of phosphatase activity, as inferred from initial reaction velocities for PP2C-mediated hydrolysis of the synthetic phosphatase substrate pNPP in reactions containing 600 nM PP2C and either 0, 600, 1200, 2400 or 4800 nM receptor. The receptor assay buffer consisted of 33 mM Tris-OAc, pH 7.9, 66 mM KOAc, 0.1% BSA, 25 mM Mn(OAc)2, 0.1%13-ME and 50 mM pNPP. Immediately after mixing proteins and substrates, reactions were monitored for hydrolysis of pNPP at A405 at ˜2 minutes intervals using a Wallac plate reader. Reaction progressions were plotted, initial velocities calculated and converted to specific activities by comparison to a standard curve for 4-nitrophenol made in the same buffer system. PP2C activity values shown in figures are expressed as %-control phosphatase activity levels, as measured under identical reaction conditions in the absence of receptor protein. The average specific activity level of GST-HAB1, 6×His-SUMO-ABI1 and 6×His-SUMO-ABI2 utilized in our experiments was 4500 (GST-PP2C) or 2500 (SUMO-PP2C) μmol/min/mg, when assayed using the phosphatase substrate pNPP in the absence of PYR1 or other receptors.
# [3] = biological target: T2, ABI1; assay: In vitro PP2C phosphatase (pNPP) receptor activation assay with ABI1; type: biochemical; conditions: 600 nM PP2C, 0-4800 nM receptor, no ABA
# Description: as §1, §2
molecule,measurement,setting,value
B1,seed hyperdormancy (stratification dependent germination),[1],induces a state of hyperdormancy in seeds
same,constitutive receptor activity on ABI2 in the absence of ABA,[2],active towards multiple PP2Cs
same,constitutive receptor activity on ABI1 in the absence of ABA,[3],active towards multiple PP2Cs
